From US20210221849A1 (MIRABIOLOGICS, published 2021)

How the values were obtained:
[1] = target: T1, Met-PA (extracellular region of a human Met receptor with a PA tag at the C terminal) (human, UniProt P08581 25-932); assay: sandwich ELISA type test: Met-PA on plate, Fab supernatant, detection with Nrp1ec-AP, A405
T1 construct: extracellular domain; Soluble receptor fragment expressed in Expi293F cells; also called second target antigen; not shown: PA tag

[2] = target: T2, plexin B1-PA (extracellular region of human plexin B1 with a PA tag at the C terminal) (human, UniProt O43157 20-1490); assay: sandwich ELISA type test: plexin B1-PA on plate, Fab supernatant, detection with Nrp1ec-AP, A405
T2 construct: extracellular domain; Soluble receptor fragment expressed in Expi293F cells; Culture supernatant in the pulldown tests, purified for the sandwich tests; also called hPlexB1; plexin B1-BA; not shown: PA tag (Wako Pure Chemical Industries)
T2 sequence (looked up): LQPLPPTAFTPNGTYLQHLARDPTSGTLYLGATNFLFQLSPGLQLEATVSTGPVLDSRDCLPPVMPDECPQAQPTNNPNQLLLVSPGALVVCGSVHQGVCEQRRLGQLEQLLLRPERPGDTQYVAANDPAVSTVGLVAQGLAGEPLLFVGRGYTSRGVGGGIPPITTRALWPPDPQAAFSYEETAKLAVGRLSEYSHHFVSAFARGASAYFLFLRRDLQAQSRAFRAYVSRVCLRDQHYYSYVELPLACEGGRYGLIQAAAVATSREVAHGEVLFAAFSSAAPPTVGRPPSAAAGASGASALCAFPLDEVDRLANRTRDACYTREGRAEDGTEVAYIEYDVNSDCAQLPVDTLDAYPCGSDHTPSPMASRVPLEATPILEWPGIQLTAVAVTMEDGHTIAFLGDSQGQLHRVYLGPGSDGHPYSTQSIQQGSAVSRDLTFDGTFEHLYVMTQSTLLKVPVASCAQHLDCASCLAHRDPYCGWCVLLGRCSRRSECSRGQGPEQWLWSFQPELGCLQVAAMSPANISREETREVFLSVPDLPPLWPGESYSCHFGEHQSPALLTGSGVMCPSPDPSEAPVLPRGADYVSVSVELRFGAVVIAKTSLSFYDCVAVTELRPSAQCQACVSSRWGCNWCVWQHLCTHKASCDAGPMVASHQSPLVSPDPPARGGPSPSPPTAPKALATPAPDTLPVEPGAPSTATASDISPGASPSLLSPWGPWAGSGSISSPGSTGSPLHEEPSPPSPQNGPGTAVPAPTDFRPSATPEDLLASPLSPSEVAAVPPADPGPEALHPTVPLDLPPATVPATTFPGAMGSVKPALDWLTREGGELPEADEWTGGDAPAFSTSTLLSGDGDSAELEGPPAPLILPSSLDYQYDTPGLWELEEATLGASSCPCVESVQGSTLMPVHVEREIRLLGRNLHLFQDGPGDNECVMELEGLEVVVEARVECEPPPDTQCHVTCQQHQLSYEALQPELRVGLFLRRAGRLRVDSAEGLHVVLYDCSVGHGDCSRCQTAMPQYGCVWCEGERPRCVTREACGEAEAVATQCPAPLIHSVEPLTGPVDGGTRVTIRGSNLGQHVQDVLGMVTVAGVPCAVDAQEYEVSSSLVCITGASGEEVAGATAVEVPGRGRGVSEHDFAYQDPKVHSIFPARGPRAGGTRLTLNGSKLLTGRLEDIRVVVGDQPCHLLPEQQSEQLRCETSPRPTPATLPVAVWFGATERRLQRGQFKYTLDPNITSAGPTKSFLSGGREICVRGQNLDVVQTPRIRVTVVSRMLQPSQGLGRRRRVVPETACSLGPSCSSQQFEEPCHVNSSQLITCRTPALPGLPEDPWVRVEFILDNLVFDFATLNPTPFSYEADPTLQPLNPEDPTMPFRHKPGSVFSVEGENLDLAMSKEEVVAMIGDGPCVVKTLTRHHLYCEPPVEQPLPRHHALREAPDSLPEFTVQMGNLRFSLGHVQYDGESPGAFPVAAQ

T1 sequence (P08581 25-932): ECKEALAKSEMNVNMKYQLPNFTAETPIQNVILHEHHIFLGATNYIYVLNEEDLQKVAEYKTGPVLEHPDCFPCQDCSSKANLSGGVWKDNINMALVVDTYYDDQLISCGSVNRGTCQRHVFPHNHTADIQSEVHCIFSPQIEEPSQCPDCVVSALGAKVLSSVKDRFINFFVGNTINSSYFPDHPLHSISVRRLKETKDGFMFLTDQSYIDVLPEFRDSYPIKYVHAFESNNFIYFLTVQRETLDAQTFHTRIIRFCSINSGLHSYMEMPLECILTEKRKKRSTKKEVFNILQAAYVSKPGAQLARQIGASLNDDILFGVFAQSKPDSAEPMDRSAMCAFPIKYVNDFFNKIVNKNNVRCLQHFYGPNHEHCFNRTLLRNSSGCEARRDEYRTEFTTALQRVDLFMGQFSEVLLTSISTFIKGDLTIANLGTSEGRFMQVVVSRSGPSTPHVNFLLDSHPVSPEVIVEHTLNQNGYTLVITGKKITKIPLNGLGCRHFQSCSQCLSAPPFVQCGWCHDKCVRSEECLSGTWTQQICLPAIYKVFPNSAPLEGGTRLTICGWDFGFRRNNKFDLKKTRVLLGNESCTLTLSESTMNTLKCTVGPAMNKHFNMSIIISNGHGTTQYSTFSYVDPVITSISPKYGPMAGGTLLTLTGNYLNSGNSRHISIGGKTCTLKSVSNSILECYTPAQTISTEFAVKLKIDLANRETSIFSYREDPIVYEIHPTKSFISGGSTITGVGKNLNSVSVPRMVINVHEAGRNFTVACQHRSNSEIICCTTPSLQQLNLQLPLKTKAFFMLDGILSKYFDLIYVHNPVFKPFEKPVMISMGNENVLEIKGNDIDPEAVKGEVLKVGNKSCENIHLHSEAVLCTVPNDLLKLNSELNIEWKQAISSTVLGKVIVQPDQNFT

binding result [1]: no binding | binding result [2]: no binding
B1: N1_Fab having no peptide inserted therein (Fab, V domains shown)
VH: EVQLVESGGGLVQPGGSLRLSCAASGFSFSSEPISWVRQAPGKGLEWVSSITGKNGYTYYADSVKGRFTISADTSKNTAYLQMNSLRAEDTAVYYCARWGKKVYGMDVWGQGTLVTVSS
VL: DIQMTQSPSSLSASVGDRVTITCRASQSISSYLAWYQQKPGKAPKLLIYGASSRASGVPSRFSGSGSGTDFTLTISSLQPEDFATYYCQQYMSVPITFGQGTKVEIKR
notes: Unfused control Fab, used as culture supernatant; also called Fab of human IgG1 monoclonal antibody N1 (clone name YW64.3) against neuropilin 1
